From IntAct's records for PubMed 18273061

B1: Vascular endothelial growth factor receptor 1 (Homo sapiens), P17948 (parent)
chain: MVSYWDTGVLLCALLSCLLLTGSSSGSKLKDPELSLKGTQHIMQAGQTLHLQCRGEAAHKWSLPEMVSKESERLSITKSACGRNGKQFCSTLTLNTAQANHTGFYSCKYLAVPTSKKKETESAIYIFISDTGRPFVEMYSEIPEIIHMTEGRELVIPCRVTSPNITVTLKKFPLDTLIPDGKRIIWDSRKGFIISNATYKEIGLLTCEATVNGHLYKTNYLTHRQTNTIIDVQISTPRPVKLLRGHTLVLNCTATTPLNTRVQMTWSYPDEKNKRASVRRRIDQSNSHANIFYSVLTIDKMQNKDKGLYTCRVRSGPSFKSVNTSVHIYDKAFITVKHRKQQVLETVAGKRSYRLSMKVKAFPSPEVVWLKDGLPATEKSARYLTRGYSLIIKDVTEEDAGNYTILLSIKQSNVFKNLTATLIVNVKPQIYEKAVSSFPDPALYPLGSRQILTCTAYGIPQPTIKWFWHPCNHNHSEARCDFCSNNEESFILDADSNMGNRIESITQRMAIIEGKNKMASTLVVADSRISGIYICIASNKVGTVGRNISFYITDVPNGFHVNLEKMPTEGEDLKLSCTVNKFLYRDVTWILLRTVNNRTMHYSISKQKMAITKEHSITLNLTIMNVSLQDSGTYACRARNVYTGEEILQKKEITIRDQEAPYLLRNLSDHTVAISSSTTLDCHANGVPEPQITWFKNNHKIQQEPGIILGPGSSTLFIERVTEEDEGVYHCKATNQKGSVESSAYLTVQGTSDKSNLELITLTCTCVAATLFWLLLTLFIRKMKRSSSEIKTDYLSIIMDPDEVPLDEQCERLPYDASKWEFARERLKLGKSLGRGAFGKVVQASAFGIKKSPTCRTVAVKMLKEGATASEYKALMTELKILTHIGHHLNVVNLLGACTKQGGPLMVIVEYCKYGNLSNYLKSKRDLFFLNKDAALHMEPKKEKMEPGLEQGKKPRLDSVTSSESFASSGFQEDKSLSDVEEEEDSDGFYKEPITMEDLISYSFQVARGMEFLSSRKCIHRDLAARNILLSENNVVKICDFGLARDIYKNPDYVRKGDTRLPLKWMAPESIFDKIYSTKSDVWSYGVLLWEIFSLGGSPYPGVQMDEDFCSRLREGMRMRAPEYSTPEIYQIMLDCWHRDPKERPRFAELVEKLGDLLQANVQQDGKDYIPINAILTGNSGFTYSTPAFSEDFFKESISAPKFNSGSSDDVRYVNAFKFMSLERIKTFEELLPNATSMFDDYQGDSSTLLASPMLKRFTWTDSKPKASLKIDLRVTSKSKESGLSDVSRPSFCHSSCGHVSEGKRRFTYDHAELERKIACCSPPPDYNSVVLYSTPPI
B2: Protein sprouty homolog 2 (Homo sapiens), O43597 (parent)
chain: MEARAQSGNGSQPLLQTPRDGGRQRGEPDPRDALTQQVHVLSLDQIRAIRNTNEYTEGPTVVPRPGLKPAPRPSTQHKHERLHGLPEHRQPPRLQHSQVHSSARAPLSRSISTVSSGSRSSTRTSTSSSSSEQRLLGSSFSSGPVADGIIRVQPKSELKPGELKPLSKEDLGLHAYRCEDCGKCKCKECTYPRPLPSDWICDKQCLCSAQNVIDYGTCVCCVKGLFYHCSNDDEDNCADNPCSCSQSHCCTRWSAMGVMSLFLPCLWCYLPAKGCLKLCQGCYDRVNRPGCRCKNSNTVCCKVPTVPPRNFEKPT

Variants of: B1
Settings: with cbl_human CBL

Q: V1331N was tested. Which “effect of a mutation on the interaction” value did it give?
A: The value was “increasing interaction”.

Variants of: B1
Settings: with cbl_human CBL
Remark: another data set of the same source

Q: With L1332R as the variant, how does the “effect of a mutation on the interaction” value read?
A: The value was “increasing interaction”.

Variants of: B2
Settings: with cbl_human CBL

Q: How did the “effect of a mutation on the interaction” value turn out when MEARAQSGNGSQPLLQTPRDGGRQRGEPDPRDALTQQVHVLSLDQIRAIRNTNEYTEGATVVPRPGLKPAPRPSTQHKHERLHGLPEHRQPPRLQHSQVHSSARAPLSRSISTVSSGSRSSTRTSTSSSSSEQRLLGSSFSSGPVADGIIRVQPKSELKPGELKPLSKEDLGLHAYRCEDCGKCKCKECTYPRPLPSDWICDKQCLCSAQNVIDYGTCVCCVKGLFYHCSNDDEDNCADNPCSCSQSHCCTRWSAMGVMSLFLPCLWCYLPAKGCLKLCQGCYDRVNRPGCRCKNSNTVCCKVPTVPPRNFEKPT [P59A] was run?
A: Its value is “decreasing interaction”.

Variants of: B2
Settings: with cbl_human CBL
Remark: another data set of the same source

Q: MEARAQSGNGSQPLLQTPRDGGRQRGEPDPRDALTQQVHVLSLDQIRAIRNTNEFTEGPTVVPRPGLKPAPRPSTQHKHERLHGLPEHRQPPRLQHSQVHSSARAPLSRSISTVSSGSRSSTRTSTSSSSSEQRLLGSSFSSGPVADGIIRVQPKSELKPGELKPLSKEDLGLHAYRCEDCGKCKCKECTYPRPLPSDWICDKQCLCSAQNVIDYGTCVCCVKGLFYHCSNDDEDNCADNPCSCSQSHCCTRWSAMGVMSLFLPCLWCYLPAKGCLKLCQGCYDRVNRPGCRCKNSNTVCCKVPTVPPRNFEKPT [Y55F] was tested. Which “effect of a mutation on the interaction” value did it give?
A: The value was “disrupting interaction”.

Variants of: B2
Settings: with cbl_human CBL
Remark: another data set of the same source

Q: With MEARAQSGNGSQPLLQTPRDGGRQRGEPDPRDALTQQVHVLSLDQIRAIRNTAEYTEGPTVVPRPGLKPAPRPSTQHKHERLHGLPEHRQPPRLQHSQVHSSARAPLSRSISTVSSGSRSSTRTSTSSSSSEQRLLGSSFSSGPVADGIIRVQPKSELKPGELKPLSKEDLGLHAYRCEDCGKCKCKECTYPRPLPSDWICDKQCLCSAQNVIDYGTCVCCVKGLFYHCSNDDEDNCADNPCSCSQSHCCTRWSAMGVMSLFLPCLWCYLPAKGCLKLCQGCYDRVNRPGCRCKNSNTVCCKVPTVPPRNFEKPT [N53A] as the variant, how does the “effect of a mutation on the interaction” value read?
A: Its value is “disrupting interaction”.
